Reference: article PMC3092982

Experiments:
[1] = biological target: FH fragment SCR-16/20 (human); assay: AUC; sedimentation velocity, SCR-16/20 at 0.1 mg/ml, Hepes buffer, 20 °C, c(s) analysis; monomer and dimer peaks across the ZnSO4 titration 0-600 μM
C3d C3d (Homo sapiens) = C3d C3d (Homo sapiens) (UniProt P01024); settings: cited from earlier work
[2] = biological target: Complement factor H (Homo sapiens) (UniProt P08603); settings: cited from earlier work

Chain of Complement factor H (P08603 19-1231): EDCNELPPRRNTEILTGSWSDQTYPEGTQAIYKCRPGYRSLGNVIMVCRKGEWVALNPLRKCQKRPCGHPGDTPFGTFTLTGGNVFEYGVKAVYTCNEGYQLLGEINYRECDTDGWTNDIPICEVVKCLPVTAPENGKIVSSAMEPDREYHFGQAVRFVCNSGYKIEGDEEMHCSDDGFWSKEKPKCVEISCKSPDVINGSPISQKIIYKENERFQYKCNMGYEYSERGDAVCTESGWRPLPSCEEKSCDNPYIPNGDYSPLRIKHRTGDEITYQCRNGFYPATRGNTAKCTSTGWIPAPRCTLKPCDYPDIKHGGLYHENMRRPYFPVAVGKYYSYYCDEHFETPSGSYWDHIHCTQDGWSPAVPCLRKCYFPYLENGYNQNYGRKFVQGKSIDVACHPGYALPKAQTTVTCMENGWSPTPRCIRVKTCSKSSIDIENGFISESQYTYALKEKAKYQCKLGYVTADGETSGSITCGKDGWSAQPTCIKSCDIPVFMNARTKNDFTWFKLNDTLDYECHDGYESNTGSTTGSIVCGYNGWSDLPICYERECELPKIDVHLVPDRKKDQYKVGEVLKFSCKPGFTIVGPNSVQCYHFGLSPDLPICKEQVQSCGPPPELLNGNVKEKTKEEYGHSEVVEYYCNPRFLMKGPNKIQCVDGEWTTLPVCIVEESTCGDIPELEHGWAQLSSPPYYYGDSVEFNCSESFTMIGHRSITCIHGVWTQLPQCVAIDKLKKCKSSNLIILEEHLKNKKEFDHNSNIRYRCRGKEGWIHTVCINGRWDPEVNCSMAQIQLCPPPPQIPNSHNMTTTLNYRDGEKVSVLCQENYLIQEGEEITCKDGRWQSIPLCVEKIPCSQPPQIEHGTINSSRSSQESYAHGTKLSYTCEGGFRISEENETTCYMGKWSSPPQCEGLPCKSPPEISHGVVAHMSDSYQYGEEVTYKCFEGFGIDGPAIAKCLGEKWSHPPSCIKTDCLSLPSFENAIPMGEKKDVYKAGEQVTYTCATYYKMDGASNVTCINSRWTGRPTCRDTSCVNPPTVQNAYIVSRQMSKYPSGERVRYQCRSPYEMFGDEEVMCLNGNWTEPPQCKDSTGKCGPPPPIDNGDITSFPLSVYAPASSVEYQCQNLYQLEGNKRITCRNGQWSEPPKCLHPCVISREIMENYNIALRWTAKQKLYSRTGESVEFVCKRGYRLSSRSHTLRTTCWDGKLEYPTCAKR
Chain of FH fragment SCR-16/20 (domain or fragment) (P08603 19-1231): as above
Chain of C3d C3d (Homo sapiens) (P01024 1002-1303): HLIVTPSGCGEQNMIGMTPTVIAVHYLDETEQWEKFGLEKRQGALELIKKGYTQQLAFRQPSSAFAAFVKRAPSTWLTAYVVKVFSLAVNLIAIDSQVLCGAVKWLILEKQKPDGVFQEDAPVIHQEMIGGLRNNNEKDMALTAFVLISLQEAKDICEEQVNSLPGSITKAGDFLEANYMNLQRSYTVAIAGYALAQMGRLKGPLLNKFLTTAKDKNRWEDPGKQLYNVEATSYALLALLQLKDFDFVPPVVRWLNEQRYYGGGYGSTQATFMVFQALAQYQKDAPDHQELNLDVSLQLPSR

| Substance | stoichiometry N [1] | Kd (C3d C3d (Homo sapiens)) | Kd [2] |
| --- | --- | --- | --- |
| FH fragment SCR-16/20 (domain or fragment) | 2 |  |  |
| Complement factor H (from UniProt P08603) |  | 2.6 µM | 28 µM |
